Results taken from paper PMC5392723.

Columns and labels:
Assay in all cases: EMSA
Glo qRRM1,2 W58A = biological target: T1, Glo qRRM1,2 W58A (Drosophila, UniProt Q9VGH5 49-225, W58A)
T1 sequence: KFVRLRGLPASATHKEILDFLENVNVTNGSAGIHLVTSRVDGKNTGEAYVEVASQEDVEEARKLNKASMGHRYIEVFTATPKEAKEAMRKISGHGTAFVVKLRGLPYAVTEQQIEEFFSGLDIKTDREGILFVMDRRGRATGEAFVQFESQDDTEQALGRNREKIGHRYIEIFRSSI

Glo qRRM1,2 R52A,K149A = biological target: T2, Glo qRRM1,2 R52A,K149A (Drosophila, UniProt Q9VGH5 49-225, R52A;K149A)
T2 sequence: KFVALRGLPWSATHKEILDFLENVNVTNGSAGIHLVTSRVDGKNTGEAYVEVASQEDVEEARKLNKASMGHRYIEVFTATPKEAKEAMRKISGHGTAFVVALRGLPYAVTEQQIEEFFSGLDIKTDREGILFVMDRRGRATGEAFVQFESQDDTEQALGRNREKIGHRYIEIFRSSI

Glo qRRM3 = biological target: T3, Glo qRRM3 (Drosophila, UniProt Q9VGH5 476-565)
T3 sequence: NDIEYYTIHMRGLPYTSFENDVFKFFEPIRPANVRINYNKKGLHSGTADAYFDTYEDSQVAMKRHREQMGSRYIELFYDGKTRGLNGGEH

Glo qRRM2 = biological target: T4, Glo qRRM2 (Drosophila, UniProt Q9VGH5 146-225)
T4 sequence: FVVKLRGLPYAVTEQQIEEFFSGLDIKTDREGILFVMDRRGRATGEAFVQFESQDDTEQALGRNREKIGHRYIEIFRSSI

Glo qRRM1 = biological target: T5, Glo qRRM1 (Drosophila, UniProt Q9VGH5 49-129)
T5 sequence: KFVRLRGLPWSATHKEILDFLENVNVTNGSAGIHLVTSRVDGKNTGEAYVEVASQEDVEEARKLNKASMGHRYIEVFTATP

AGGGA (ssRNA) [G-tract RNA 5'-AGGGA] was tested, and the binding result (Glo qRRM1,2 W58A) was “binds”, the binding result (Glo qRRM1,2 R52A,K149A) was “binds” and the Kd (Glo qRRM3) was 170 nM. It also gave a Kd (Glo qRRM2) of 620 nM and a Kd (Glo qRRM1) of 180 nM.
